T1: FcγRIIb (human, UniProt P31994 43-217)
T1 construct: extracellular domain; also called FcgRIIb; CD32B
T1 sequence (looked up): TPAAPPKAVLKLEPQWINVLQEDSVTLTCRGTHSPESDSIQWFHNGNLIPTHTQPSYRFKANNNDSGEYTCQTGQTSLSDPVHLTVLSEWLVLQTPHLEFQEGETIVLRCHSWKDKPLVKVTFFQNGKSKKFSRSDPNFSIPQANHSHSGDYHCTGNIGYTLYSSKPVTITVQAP

T2: FcγRIIb extracellular domain with C-terminal His tag (human, UniProt P31994 43-217)
T2 construct: extracellular domain; Soluble receptor expressed in FreeStyle293 cells, used as analyte in Biacore; also called FcgRIIb; 2b
T2 sequence (looked up): T1 sequence (looked up)

B1: GpH7-A5/GpH7-B3 variant P329_01G/GpL16-k0 (antibody, human IgG1, kappa)
heavy 1: not shown
heavy 2: not shown
light: DIVMTQSPLSLPVTPGEPASISCQASESLVHSNRNTYLHWYLQKPGQSPQLLIYKVSNRFSGVPDRFSGSGSGTDFTLKISRVEAEDVGVYYCSQNTHVPPTFGQGTKVEIERTVAAPSVFIFPPSDEQLKSGTASVVCLLNNFYPREAKVQWKVDNALQSGNSQESVTEQDSKDSTYSLSSTLTLSKADYEKHKVYACEVTHQGLSSPVTKSFNRGEC
notes: He Ab; mutation in the GpH7-B3 chain only; also called He Ab
B2: GpH7-A5/GpH7-B3 variant A330_13S/GpL16-k0 (antibody, human IgG1, kappa)
heavy 1: not shown
heavy 2: not shown
light: B1 light
notes: as for B1
B3: GpH7-A5/GpH7-B3 variant A327_16H/GpL16-k0 (antibody, human IgG1, kappa)
heavy 1: not shown
heavy 2: not shown
light: B1 light
notes: as for B1
B4: GpH7-A5/GpH7-B3 variant A330_10E/GpL16-k0 (antibody, human IgG1, kappa)
heavy 1: not shown
heavy 2: not shown
light: B1 light
notes: as for B1
B5: GpH7-A5/GpH7-B3 variant A327_20W/GpL16-k0 (antibody, human IgG1, kappa)
heavy 1: not shown
heavy 2: not shown
light: B1 light
notes: as for B1
B6: GpH7-A5/GpH7-B3 variant A330_14T/GpL16-k0 (antibody, human IgG1, kappa)
heavy 1: not shown
heavy 2: not shown
light: B1 light
notes: as for B1
B7: GpH7-A5/GpH7-B3 variant E333_01G/GpL16-k0 (antibody, human IgG1, kappa)
heavy 1: not shown
heavy 2: not shown
light: B1 light
notes: as for B1
B8: GpH7-A5/GpH7-B3 variant A330_08L/GpL16-k0 (antibody, human IgG1, kappa)
heavy 1: not shown
heavy 2: not shown
light: B1 light
notes: as for B1
B9: GpH7-A5/GpH7-B3 variant A330_16H/GpL16-k0 (antibody, human IgG1, kappa)
heavy 1: not shown
heavy 2: not shown
light: B1 light
notes: as for B1
B10: GpH7-A5/GpH7-B3 variant A330_20W/GpL16-k0 (antibody, human IgG1, kappa)
heavy 1: not shown
heavy 2: not shown
light: B1 light
notes: as for B1
B11: GpH7-A5/GpH7-B3 variant E333_02A/GpL16-k0 (antibody, human IgG1, kappa)
heavy 1: not shown
heavy 2: not shown
light: B1 light
notes: as for B1
B12: GpH7-A5/GpH7-B3 variant A330_07I/GpL16-k0 (antibody, human IgG1, kappa)
heavy 1: not shown
heavy 2: not shown
light: B1 light
notes: as for B1
B13: GpH7-A5/GpH7-B3 variant A330_18N/GpL16-k0 (antibody, human IgG1, kappa)
heavy 1: not shown
heavy 2: not shown
light: B1 light
notes: as for B1
B14: GpH7-A5/GpH7-B3 variant A327_19Q/GpL16-k0 (antibody, human IgG1, kappa)
heavy 1: not shown
heavy 2: not shown
light: B1 light
notes: as for B1
B15: GpH7-A5/GpH7-B3 variant A330_03V/GpL16-k0 (antibody, human IgG1, kappa)
heavy 1: not shown
heavy 2: not shown
light: B1 light
notes: as for B1
B16: GpH7-A5/GpH7-B3 variant A330_06M/GpL16-k0 (antibody, human IgG1, kappa)
heavy 1: not shown
heavy 2: not shown
light: B1 light
notes: as for B1
B17: GpH7-A5/GpH7-B3 variant A330_09D/GpL16-k0 (antibody, human IgG1, kappa)
heavy 1: not shown
heavy 2: not shown
light: B1 light
notes: as for B1
B18: GpH7-A5/GpH7-B3 variant Y300_08L/GpL16-k0 (antibody, human IgG1, kappa)
heavy 1: not shown
heavy 2: not shown
light: B1 light
notes: Heterodimerized anti-glypican-3 IgG1; mutation in the GpH7-B3 chain only; also called He Ab
B19: GpH7-A5/GpH7-B3 variant Y300_07I/GpL16-k0 (antibody, human IgG1, kappa)
heavy 1: not shown
heavy 2: not shown
light: B1 light
notes: as for B18
B20: GpH7-A5/GpH7-B3 variant Y300_01G/GpL16-k0 (antibody, human IgG1, kappa)
heavy 1: not shown
heavy 2: not shown
light: B1 light
notes: as for B18
B21: GpH7-A5/GpH7-B3 variant Y300_14T/GpL16-k0 (antibody, human IgG1, kappa)
heavy 1: not shown
heavy 2: not shown
light: B1 light
notes: as for B18
B22: GpH7-A5/GpH7-B3 variant S324_12R/GpL16-k0 (antibody, human IgG1, kappa)
heavy 1: not shown
heavy 2: not shown
light: B1 light
notes: as for B18
B23: GpH7-A5/GpH7-B3 variant Y296_20W/GpL16-k0 (antibody, human IgG1, kappa)
heavy 1: not shown
heavy 2: not shown
light: B1 light
notes: as for B18
B24: GpH7-A5/GpH7-B3 variant S324_11K/GpL16-k0 (antibody, human IgG1, kappa)
heavy 1: not shown
heavy 2: not shown
light: B1 light
notes: as for B18
B25: GpH7-A5/GpH7-B3 variant S324_10E/GpL16-k0 (antibody, human IgG1, kappa)
heavy 1: not shown
heavy 2: not shown
light: B1 light
notes: as for B18
B26: GpH7-A5/GpH7-B3 variant Y300_13S/GpL16-k0 (antibody, human IgG1, kappa)
heavy 1: not shown
heavy 2: not shown
light: B1 light
notes: as for B18
B27: GpH7-A5/GpH7-B3 variant S324_19Q/GpL16-k0 (antibody, human IgG1, kappa)
heavy 1: not shown
heavy 2: not shown
light: B1 light
notes: as for B18
B28: GpH7-A5/GpH7-B3 variant S324_16H/GpL16-k0 (antibody, human IgG1, kappa)
heavy 1: not shown
heavy 2: not shown
light: B1 light
notes: as for B18

target: T3, FcγRIa (human, UniProt P12314 16-292); assay: ratio of He/Con_1a to He/Con_2b (FcγRIa over FcγRIIb), SPR
T3 construct: extracellular domain; also called FcgRI; CD64
T3 sequence (P12314 16-292): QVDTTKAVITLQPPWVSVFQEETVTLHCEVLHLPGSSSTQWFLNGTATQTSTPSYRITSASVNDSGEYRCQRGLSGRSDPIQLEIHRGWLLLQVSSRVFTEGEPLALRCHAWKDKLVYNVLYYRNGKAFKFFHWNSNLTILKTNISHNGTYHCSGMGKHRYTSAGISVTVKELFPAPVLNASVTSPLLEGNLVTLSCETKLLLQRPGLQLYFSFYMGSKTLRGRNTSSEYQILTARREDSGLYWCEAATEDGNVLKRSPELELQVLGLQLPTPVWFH
Experimental: (§1) The heterodimerized antibodies He Abs in which one of the H chains was introduced with an alteration were assayed for their binding activities to each activating FcγR and inhibitory FcγR according to the method described in Example 4. […] The activating FcγRs in FIGS. 26, 27, 28, and 29 are FcγRIa, FcγRIIa (R), FcγRIIa (H), and FcγRIIIa, respectively.
(§2) Analysis of interaction between objective antibody and the FcγR was carried out using Biacore T100 (GE Healthcare). HBS-EP+ (GE Healthcare) was used as the running buffer, and the measurement temperature was set to 25° C. Chips produced by immobilizing the antigen peptide by the amine coupling method to a Series S Sencor Chip CM5 (GE Healthcare), or alternatively, chips produced by allowing preliminarily biotinylated antigen peptides to interact with and immobilize onto a Series S Sensor Chip SA (certified) (GE Healthcare) were used. Antibodies of interest were captured onto an antigen peptide-immobilized chip, and allowed to interact to each FcγR diluted with running buffer. To regenerate and repeatedly use the chip, the antibodies captured on the chip were washed off by reacting 10 mM glycine-HCl, pH 1.5.

Row | Binder | He_1a/2b (Ia/IIb)
1 | B1 | 2.42
2 | B2 | 2.22
3 | B3 | 1.52
4 | B4 | 1.53
5 | B5 | 1.24
6 | B6 | 1.35
7 | B7 | 1.26
8 | B8 | 1.52
9 | B9 | 1.21
10 | B10 | 1.41
11 | B11 | 1.23
12 | B12 | 1.57
13 | B13 | 1.67
14 | B14 | 1.78
15 | B15 | 2.01
16 | B16 | 1.3
17 | B17 | 1.95

target: T4, FcγRIIIa extracellular domain with C-terminal His tag (human, UniProt P08637 17-208); assay: SPR (Biacore); He/Con_3a divided by He/Con_2b (FcγRIIIa against FcγRIIb)
T4 construct: extracellular domain; also called FcgRIIIa; 3a
T4 sequence (P08637 17-208): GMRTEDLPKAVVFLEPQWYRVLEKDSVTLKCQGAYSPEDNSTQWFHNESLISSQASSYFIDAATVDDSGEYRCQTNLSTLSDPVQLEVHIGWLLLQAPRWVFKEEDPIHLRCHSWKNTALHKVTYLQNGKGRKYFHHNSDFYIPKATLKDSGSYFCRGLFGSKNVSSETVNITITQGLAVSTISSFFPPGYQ
Procedure, shortened: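 Surface plasmon resonance on a Biacore T100 measured FcγR interaction with antibodies bound to immobilized antigen peptide, at 25 °C in HBS-EP+.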

Row | Binder | He_3a/2b (IIIa/IIb) [ratio]
18 | B18 | 1.43
19 | B19 | 1.28
20 | B20 | 1.69
21 | B21 | 1.53
22 | B22 | 1.43
23 | B23 | 1.31
24 | B24 | 1.21
25 | B25 | 1.28
26 | B26 | 1.37
27 | B27 | 1.33
28 | B28 | 1.24

target: T3, FcγRIa; assay: SPR (Biacore), captured antibody, soluble FcγR; relative to GpH7-A5/GpH7-B3/GpL16-k0 = 100
Experimental: as §1, §2

Row | Binder | He/Con_1a
29 | B1 | 101 % of control
30 | B2 | 91.5 % of control
31 | B3 | 96.5 % of control
32 | B4 | 107 % of control
33 | B5 | 97.7 % of control
34 | B6 | 105 % of control
35 | B7 | 103 % of control
36 | B8 | 107 % of control
37 | B9 | 106 % of control
38 | B10 | 108 % of control
39 | B11 | 103 % of control
40 | B12 | 105 % of control
41 | B13 | 106 % of control
42 | B14 | 96.2 % of control
43 | B15 | 106 % of control
44 | B16 | 105 % of control
45 | B17 | 109 % of control

target: T1, FcγRIIb; assay: as above
Experimental: as §1, §2

Row | Binder | He/Con_2b
46 | B1 | 41.7 % of control
47 | B2 | 41.3 % of control
48 | B3 | 63.5 % of control
49 | B4 | 70.1 % of control
50 | B5 | 73.8 % of control
51 | B6 | 77.9 % of control
52 | B7 | 81.4 % of control
53 | B8 | 70.5 % of control
54 | B9 | 87.6 % of control
55 | B10 | 76.1 % of control
56 | B11 | 83.8 % of control
57 | B12 | 67.1 % of control
58 | B13 | 63.7 % of control
59 | B14 | 54.2 % of control
60 | B15 | 52.4 % of control
61 | B16 | 80.5 % of control
62 | B17 | 55.6 % of control

target: T2, FcγRIIb extracellular domain with …; assay: SPR (Biacore), antibody captured on antigen peptide chip, FcγR as analyte; GpH7-A5/GpH7-B3/GpL16-k0 = 100

Row | Binder | He/Con_2b (relative binding activity)
63 | B18 | 73.6 % of control
64 | B19 | 74.5 % of control
65 | B20 | 48.4 % of control
66 | B21 | 55.6 % of control
67 | B22 | 63.1 % of control
68 | B23 | 103 % of control
69 | B24 | 68.6 % of control
70 | B25 | 77.4 % of control
71 | B26 | 53.9 % of control
72 | B27 | 66.8 % of control
73 | B28 | 83.5 % of control

target: T4, FcγRIIIa extracellular domain with …; assay: as above

Row | Binder | He/Con_3a (relative binding activity)
74 | B18 | 105 % of control
75 | B19 | 95.1 % of control
76 | B20 | 81.6 % of control
77 | B21 | 85.4 % of control
78 | B22 | 90.3 % of control
79 | B23 | 135 % of control
80 | B24 | 83 % of control
81 | B25 | 99.3 % of control
82 | B26 | 73.9 % of control
83 | B27 | 88.5 % of control
84 | B28 | 104 % of control

Reference: patent US20150344570A1 (published 2015)
